Measured values as given in patent US20210403565A1 (BIOATLA, published 2021).

T1: recombinant human CTLA4 extracellular domain (human, UniProt P16410 36-161)
T1 construct: extracellular domain; also called huCTLA-4
T1 sequence (looked up): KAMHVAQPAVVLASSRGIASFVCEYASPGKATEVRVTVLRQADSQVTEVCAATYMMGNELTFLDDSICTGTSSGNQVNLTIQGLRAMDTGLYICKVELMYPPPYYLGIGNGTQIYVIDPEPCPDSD

T2: human CTLA4 expressed on the cell surface of CHO cells (human, UniProt P16410 36-223)
T2 construct: whole, on cells; also called CHO-huCTLA4; huCTLA4
T2 sequence (looked up): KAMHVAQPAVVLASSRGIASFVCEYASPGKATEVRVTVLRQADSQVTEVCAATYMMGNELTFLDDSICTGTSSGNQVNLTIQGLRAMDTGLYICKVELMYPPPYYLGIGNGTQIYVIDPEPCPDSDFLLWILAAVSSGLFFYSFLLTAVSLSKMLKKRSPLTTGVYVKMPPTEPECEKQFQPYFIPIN

T3: cynomolgus CTLA4 expressed on the cell surface of CHO cells (cynomolgus, UniProt G7PL88 36-223)
T3 construct: whole, on cells; also called CHO-cynoCTLA4
T3 sequence: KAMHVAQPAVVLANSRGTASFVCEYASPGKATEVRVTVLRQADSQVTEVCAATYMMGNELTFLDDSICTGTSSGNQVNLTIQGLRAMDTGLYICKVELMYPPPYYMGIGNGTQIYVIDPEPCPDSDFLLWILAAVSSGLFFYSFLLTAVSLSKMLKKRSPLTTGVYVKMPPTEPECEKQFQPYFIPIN


Assays:
[1] = target: T1, recombinant human CTLA4 extracellular …; experiment: ELISA, wells coated with human CTLA4, assay pH 6.0; lot 6978 in His buffer, T2W; unit from the axis Log[ng/mL]
Experimental: (§1) Both ELISA and FACS analysis were used to measure the binding activity. […] The amount of bound antibodies was quantified using anti-human IgG antibody conjugated to HRP. The absorbance at 450 nm in each measurement was proportional to the amount of antibodies bound. […] EC50 value (in ng/mL) for binding to human CTLA4 was determined by absorbance at 450 nm against antibody concentration with Prism variable slope of four-parameter dose-response curve, which was calculated using the nonlinear fit (variable slope, four parameters) model built into GraphPad Prism software (version 7.03). The buffers tested included His buffer (His), Tris buffer (Tris), Glutamine buffer (Glu) and no buffer.

[2] = target: T2, human CTLA4 expressed on the cell …; experiment: FACS, cells expressing human CTLA4, assay pH 6.0, MFI; lot 6978 in His buffer, T0; unit from the axis Log[ng/mL]
Experimental: (§2) The amount of bound antibodies was quantified using anti-human IgG antibody conjugated to fluorophores. The MFI in each reaction was proportional to the amount of antibodies bound. The EC₅₀ value (in ng/mL) for binding to human CTLA4 on cells was determined by MFI of the singlets population against antibody concentration with a Prism variable slope of four-parameter dose-response curve, which was calculated using the nonlinear fit (variable slope, four parameters) model built into GraphPad Prism software (version 7.03).

[3] = target: T2, human CTLA4 expressed on the cell …; experiment: FACS, cells expressing human CTLA4, assay pH 7.4, MFI; lot 6978 in Tris buffer, T0; unit from the axis Log[ng/mL]
Experimental: as §2

[4] = target: T1, recombinant human CTLA4 extracellular …; experiment: ELISA, wells coated with human CTLA4, assay pH 7.4; lot 6978 in His buffer, T0; curve still rising at log 3 (OD450 below 0.2), no plateau; unit from the axis Log[ng/mL]
Experimental: as §1

[5] = target: T1, recombinant human CTLA4 extracellular …; experiment: ELISA, wells coated with human CTLA4, assay pH 7.4; lot 6978 in Glu buffer, T0; curve still rising at log 3 (OD450 at most about 0.3), no plateau; unit from the axis Log[ng/mL]
Experimental: as §1

[6] = target: T3, cynomolgus CTLA4 expressed on the cell …; experiment: FACS saturation, CHO-cynoCTLA-4, pH 7.4, MFI, titration up to about log 6.5; at baseline up to about log 4.5, about 100000 at the end, no plateau; no unit in the table, unit from the axis Log Antibodies [ng/ml]
Experimental: The amount of antibodies bound on the cells was quantified using anti-human IgG antibody conjugated to fluorophores. EC₅₀ values at pH 6.0 and 7.4 for binding to cells were calculated using the nonlinear fit (variable slope, four parameters) model built into GraphPad Prism software (version 7.03). The expression levels of human CTLA4 or cynomolgus CTLA4 on the surface of the CHO cells were determined using a BD QuantiBRITE™ PE kit.
Finally, saturations of the antibodies on the CHO cells expressing human or cynomolgus CTLA4 at pH 7.4 were also measured by FACS (FIGS. 8A-8B).

[7] = target: T1, recombinant human CTLA4 extracellular …; experiment: ELISA, wells coated with human CTLA4, assay pH 6.0; lot 6972 in His buffer, T0; unit from the axis Log[ng/mL]
Experimental: as §1

[8] = target: T1, recombinant human CTLA4 extracellular …; experiment: ELISA, wells coated with human CTLA4, assay pH 6.0; lot 6972 in Glu buffer, T0; unit from the axis Log[ng/mL]
Experimental: as §1

[9] = target: T1, recombinant human CTLA4 extracellular …; experiment: ELISA, wells coated with human CTLA4, assay pH 6.0; lot 6972 in Tris buffer, T0; unit from the axis Log[ng/mL]
Experimental: as §1

[10] = target: T1, recombinant human CTLA4 extracellular …; experiment: ELISA, wells coated with human CTLA4, assay pH 7.4; lot 6972 in Glu buffer, T2W; unit from the axis Log[ng/mL]
Experimental: as §1

[11] = target: T1, recombinant human CTLA4 extracellular …; experiment: ELISA, wells coated with human CTLA4, assay pH 6.0; lot 6972 without test buffer; same column repeated in FIG. 9B and FIG. 9C; unit from the axis Log[ng/mL]
Experimental: as §1

[12] = target: T2, human CTLA4 expressed on the cell …; experiment: FACS, cells expressing human CTLA4, assay pH 7.4, MFI; lot 6972 control without test buffer; same column repeated in FIG. 10B and FIG. 10C; unit from the axis Log[ng/mL]
Experimental: as §2

Binder	EC50 [1]	EC50 [2]	EC50 [3]	EC50 [4]	EC50 [5]	EC50 [6]	EC50 [7]	EC50 [8]	EC50 [9]	EC50 [10]	EC50 [11]	EC50 [12]
BA-087-08-32 (antibody, V domains shown, Detected with anti-human IgG and a molecular weight of 146 kDa was used in SPR, so it was tested as a whole IgG; also called BA-087-08-032; BA-087-08-32 (# 6978)) VH: EVQLVQSGAEVKKPGATVKISCKVSGFTFSHYTMHWIRQSPSRGLEWLGFISYDGNYKYYADSVKGRFTISRDNAKNSLYLQMNSLRAEDTAVYYCARTGWLGPFDYWGQGTLVTVSS VL: EIVMTQSPATLSVSPGERATLSCRASQSVGSSYLAWYQQKPGKAPKLLIYGAFSRATGVPSRFSGSGSGTDFTLTISSLQPEDFATYYCQQDGSSPWTFGQGTKVEIK	0.0441 µg/mL	0.159 µg/mL	1.26 µg/mL	0.491 µg/mL	1.19 µg/mL	1650 µg/mL	–	–	–	–	–	–
BA-087-05-19 (antibody, V domains shown, Detected with anti-human IgG and a molecular weight of 146 kDa was used in SPR, so it was tested as a whole IgG; also called BA-087-05-019; BA-087-05-19 (# 6972)) VH: EVQLVESGGGLVQPGGSLRLSCAASGFTFSHYTMHWVRQAPGKGLEWVSFISYDGNNKYYADSVKGRFTISRDNSKNTLYLQMNSLRAEDTAVYYCARTGWLGPFDYWGQGTLVTVSS VL: AIQLTQSPSSLSASVGDRVTITCRASQYVGSSYLAWYLQKPGQSPQLLIYGAFSRATGIPARFSGSGSGTEFTLTISSLQSEDFAVYYCQQDGSSPWTFGQGTKVEIK	–	–	–	–	–	–	0.0154 µg/mL	0.0109 µg/mL	0.00591 µg/mL	0.022 µg/mL	0.00626 µg/mL	0.428 µg/mL
